What was measured:
Experiment in all cases: co-IP, anti-FLAG, lysate of cells with N-FLAG B3GNT2; mass spectrometry
PARP1 = biological target: T1, PARP1 (human, UniProt P09874 2-1014)
T1 construct: also called NP_001609.2

DDX5 = biological target: T2, DDX5 (human, UniProt P17844 1-614)
T2 construct: also called NP_001307526.1

KRT6B = biological target: T3, KRT6B (human, UniProt P04259 2-564)
T3 construct: also called NP_00546.2
T3 sequence (looked up): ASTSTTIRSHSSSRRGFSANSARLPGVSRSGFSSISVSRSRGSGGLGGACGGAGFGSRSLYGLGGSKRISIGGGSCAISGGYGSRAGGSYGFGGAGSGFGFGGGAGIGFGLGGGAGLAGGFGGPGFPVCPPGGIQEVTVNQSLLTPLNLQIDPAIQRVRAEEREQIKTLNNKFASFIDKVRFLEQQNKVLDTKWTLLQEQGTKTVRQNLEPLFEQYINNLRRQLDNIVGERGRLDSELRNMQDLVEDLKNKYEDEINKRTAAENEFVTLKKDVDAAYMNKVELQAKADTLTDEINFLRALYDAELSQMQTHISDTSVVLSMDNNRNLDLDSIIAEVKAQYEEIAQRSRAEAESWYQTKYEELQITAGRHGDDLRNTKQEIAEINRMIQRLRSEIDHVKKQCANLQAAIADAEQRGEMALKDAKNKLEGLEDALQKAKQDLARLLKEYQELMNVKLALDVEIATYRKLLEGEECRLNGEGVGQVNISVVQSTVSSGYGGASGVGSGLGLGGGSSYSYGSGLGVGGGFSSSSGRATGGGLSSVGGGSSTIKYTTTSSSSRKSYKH

MYH11 = biological target: T4, MYH11 (human, UniProt P35749-3 1-1945, limits assumed)
T4 construct: also called NP_001035202.1 (+4)
T4 sequence (P35749 other isoform, or with tags, fused parts or gaps limits assumed): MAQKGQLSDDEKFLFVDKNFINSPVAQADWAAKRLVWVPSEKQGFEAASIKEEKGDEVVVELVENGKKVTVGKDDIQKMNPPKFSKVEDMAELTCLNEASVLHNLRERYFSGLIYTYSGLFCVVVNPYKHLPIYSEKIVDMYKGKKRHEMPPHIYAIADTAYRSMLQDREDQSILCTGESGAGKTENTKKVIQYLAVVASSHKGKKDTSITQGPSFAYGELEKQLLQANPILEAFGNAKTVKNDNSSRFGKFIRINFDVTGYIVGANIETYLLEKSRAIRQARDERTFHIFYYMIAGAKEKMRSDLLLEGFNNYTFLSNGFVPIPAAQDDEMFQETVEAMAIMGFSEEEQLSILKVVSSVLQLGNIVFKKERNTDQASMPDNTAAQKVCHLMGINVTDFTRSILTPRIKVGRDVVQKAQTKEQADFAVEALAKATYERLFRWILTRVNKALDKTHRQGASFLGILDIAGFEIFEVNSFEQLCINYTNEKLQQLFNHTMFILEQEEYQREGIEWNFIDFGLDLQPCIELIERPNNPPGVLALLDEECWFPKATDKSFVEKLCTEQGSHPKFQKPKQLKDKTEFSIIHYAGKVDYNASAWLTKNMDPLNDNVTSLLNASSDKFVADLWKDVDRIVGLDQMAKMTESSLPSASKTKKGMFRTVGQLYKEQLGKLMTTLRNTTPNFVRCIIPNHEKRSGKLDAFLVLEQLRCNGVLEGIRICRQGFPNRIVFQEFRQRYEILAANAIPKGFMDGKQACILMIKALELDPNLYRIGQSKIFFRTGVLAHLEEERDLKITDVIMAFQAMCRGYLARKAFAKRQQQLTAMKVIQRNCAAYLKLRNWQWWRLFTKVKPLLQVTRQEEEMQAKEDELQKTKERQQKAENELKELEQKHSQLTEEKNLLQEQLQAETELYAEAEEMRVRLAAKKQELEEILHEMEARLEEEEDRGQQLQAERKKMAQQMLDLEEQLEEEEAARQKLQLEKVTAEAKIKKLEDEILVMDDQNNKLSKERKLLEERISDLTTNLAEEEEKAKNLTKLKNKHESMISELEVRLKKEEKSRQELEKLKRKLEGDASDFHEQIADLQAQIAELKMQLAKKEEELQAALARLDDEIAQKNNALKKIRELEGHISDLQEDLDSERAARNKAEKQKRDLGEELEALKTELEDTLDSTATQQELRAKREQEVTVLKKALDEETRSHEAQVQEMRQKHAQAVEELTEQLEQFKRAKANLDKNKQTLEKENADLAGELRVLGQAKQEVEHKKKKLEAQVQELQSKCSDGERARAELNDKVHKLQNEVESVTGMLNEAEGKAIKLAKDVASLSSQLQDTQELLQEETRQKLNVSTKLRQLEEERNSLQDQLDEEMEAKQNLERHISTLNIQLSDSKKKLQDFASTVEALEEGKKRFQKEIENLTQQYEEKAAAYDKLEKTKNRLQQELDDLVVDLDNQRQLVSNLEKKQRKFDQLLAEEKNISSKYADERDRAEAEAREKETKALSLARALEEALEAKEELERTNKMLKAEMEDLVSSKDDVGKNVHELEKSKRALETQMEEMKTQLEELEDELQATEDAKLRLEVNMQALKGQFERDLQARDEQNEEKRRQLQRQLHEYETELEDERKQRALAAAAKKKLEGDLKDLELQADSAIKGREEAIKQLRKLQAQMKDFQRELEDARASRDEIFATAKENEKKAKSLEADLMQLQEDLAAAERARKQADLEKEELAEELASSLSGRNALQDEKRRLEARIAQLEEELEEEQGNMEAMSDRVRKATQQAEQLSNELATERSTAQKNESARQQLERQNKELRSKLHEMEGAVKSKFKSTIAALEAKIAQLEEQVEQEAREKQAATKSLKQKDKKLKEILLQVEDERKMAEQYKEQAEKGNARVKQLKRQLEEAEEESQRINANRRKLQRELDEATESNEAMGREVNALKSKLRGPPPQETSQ

RPL10 = RPL10 (human, UniProt P27635 2-214)
RPL4 = RPL4 (human, UniProt P36578 2-427)
HADHB = biological target: T5, HADHB (human, UniProt P55084 34-474)
T5 construct: also called NP_000174.1 (+3)
T5 sequence (looked up): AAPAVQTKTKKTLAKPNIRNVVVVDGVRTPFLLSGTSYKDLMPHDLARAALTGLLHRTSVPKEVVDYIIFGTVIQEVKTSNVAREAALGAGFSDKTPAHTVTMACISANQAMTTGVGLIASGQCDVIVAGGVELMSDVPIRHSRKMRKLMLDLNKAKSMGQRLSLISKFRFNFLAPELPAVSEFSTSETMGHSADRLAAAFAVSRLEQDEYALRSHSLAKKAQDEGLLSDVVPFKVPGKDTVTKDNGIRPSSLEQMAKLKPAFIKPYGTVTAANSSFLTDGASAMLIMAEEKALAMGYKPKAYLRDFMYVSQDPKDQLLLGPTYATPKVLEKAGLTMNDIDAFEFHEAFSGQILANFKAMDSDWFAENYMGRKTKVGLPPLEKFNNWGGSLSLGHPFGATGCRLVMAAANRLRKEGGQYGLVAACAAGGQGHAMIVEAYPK

DNAJC3 = biological target: T6, DNAJC3 (human, UniProt Q13217 32-504)
T6 construct: also called NP_006251.1 (+4)
T6 sequence (looked up): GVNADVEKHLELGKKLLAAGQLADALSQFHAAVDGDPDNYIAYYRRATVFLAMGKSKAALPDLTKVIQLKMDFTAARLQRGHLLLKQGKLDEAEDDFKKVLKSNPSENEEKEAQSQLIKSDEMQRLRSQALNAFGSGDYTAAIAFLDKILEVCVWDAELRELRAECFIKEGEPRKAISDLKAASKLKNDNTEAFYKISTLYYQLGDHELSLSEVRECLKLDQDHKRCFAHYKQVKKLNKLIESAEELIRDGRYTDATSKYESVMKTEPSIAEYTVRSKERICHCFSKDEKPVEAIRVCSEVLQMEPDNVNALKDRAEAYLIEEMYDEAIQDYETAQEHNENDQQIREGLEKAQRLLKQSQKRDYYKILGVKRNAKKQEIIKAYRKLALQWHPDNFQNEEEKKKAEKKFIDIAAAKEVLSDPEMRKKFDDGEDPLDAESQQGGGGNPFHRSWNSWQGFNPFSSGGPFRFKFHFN

T2 sequence (P17844 whole entry): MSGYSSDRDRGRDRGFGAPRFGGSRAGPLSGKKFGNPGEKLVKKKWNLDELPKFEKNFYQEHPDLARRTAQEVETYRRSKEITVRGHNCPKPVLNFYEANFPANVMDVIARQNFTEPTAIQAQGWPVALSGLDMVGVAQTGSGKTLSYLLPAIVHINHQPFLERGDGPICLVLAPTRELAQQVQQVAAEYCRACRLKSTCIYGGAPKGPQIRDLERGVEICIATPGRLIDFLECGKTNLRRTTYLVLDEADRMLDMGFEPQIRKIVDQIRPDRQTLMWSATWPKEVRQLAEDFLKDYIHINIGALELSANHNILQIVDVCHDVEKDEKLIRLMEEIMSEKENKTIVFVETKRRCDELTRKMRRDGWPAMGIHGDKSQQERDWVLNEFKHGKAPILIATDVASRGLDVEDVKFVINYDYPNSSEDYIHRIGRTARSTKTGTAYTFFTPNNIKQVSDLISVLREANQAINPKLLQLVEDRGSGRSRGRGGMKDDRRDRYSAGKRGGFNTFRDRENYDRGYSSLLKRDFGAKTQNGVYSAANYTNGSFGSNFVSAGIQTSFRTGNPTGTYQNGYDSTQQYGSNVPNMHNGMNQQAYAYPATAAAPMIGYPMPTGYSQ
T1 sequence (P09874 2-1014 limits assumed): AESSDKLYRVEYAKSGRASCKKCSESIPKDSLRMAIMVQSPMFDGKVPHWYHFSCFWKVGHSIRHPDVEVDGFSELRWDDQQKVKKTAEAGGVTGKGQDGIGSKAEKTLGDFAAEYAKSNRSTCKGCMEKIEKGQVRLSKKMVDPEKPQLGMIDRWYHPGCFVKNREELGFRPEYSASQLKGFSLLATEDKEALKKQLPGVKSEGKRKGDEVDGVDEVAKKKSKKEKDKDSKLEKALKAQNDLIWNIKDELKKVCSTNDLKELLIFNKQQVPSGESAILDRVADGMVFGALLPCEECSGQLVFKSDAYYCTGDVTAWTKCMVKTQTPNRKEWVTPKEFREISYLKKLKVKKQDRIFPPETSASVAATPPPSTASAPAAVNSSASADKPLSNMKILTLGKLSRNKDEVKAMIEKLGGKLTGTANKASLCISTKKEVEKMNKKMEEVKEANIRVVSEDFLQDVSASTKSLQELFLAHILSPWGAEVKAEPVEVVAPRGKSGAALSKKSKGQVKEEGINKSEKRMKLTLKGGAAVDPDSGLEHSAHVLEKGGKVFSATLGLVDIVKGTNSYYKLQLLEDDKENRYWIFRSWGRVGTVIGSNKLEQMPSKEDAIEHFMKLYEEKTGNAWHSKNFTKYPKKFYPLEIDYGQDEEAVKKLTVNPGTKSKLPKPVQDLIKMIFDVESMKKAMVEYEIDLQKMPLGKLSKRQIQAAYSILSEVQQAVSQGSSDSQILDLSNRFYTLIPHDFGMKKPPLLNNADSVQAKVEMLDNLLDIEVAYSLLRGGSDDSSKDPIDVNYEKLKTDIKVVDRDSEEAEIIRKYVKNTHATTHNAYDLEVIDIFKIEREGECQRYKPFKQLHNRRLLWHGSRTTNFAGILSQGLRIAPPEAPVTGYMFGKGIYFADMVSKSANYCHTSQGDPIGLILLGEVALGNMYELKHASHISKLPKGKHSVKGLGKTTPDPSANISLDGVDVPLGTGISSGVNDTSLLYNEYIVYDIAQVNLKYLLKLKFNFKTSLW

B1: N-terminal FLAG tagged B3GNT2 (enzyme, human, UniProt Q9NY97 1-397, looked up)
chain: MSVGRRRIKLLGILMMANVFIYFIMEVSKSSSQEKNGKGEVIIPKEKFWKISTPPEAYWNREQEKLNRQYNPILSMLTNQTGEAGRLSNISHLNYCEPDLRVTSVVTGFNNLPDRFKDFLLYLRCRNYSLLIDQPDKCAKKPFLLLAIKSLTPHFARRQAIRESWGQESNAGNQTVVRVFLLGQTPPEDNHPDLSDMLKFESEKHQDILMWNYRDTFFNLSLKEVLFLRWVSTSCPDTEFVFKGDDDVFVNTHHILNYLNSLSKTKAKDLFIGDVIHNAGPHRDKKLKYYIPEVVYSGLYPPYAGGGGFLYSGHLALRLYHITDQVHLYPIDDVYTGMCLQKLGLVPEKHKGFRTFDIEEKNKNNICSYVDLMLVHSRKPQEMIDIWSQLQSAHLKC
notes: Overexpressed in cells and pulled down from the lysate with mouse anti-FLAG antibody; also called N-FLAG B3GNT2; N-term FLAG; not shown: N-terminal FLAG tag
PARP1
  co-IP mass spectrometry count: 0
DDX5
  co-IP mass spectrometry count: 16
KRT6B
  co-IP mass spectrometry count: 370
MYH11
  co-IP mass spectrometry count: 2
RPL10
  co-IP mass spectrometry count: 4
RPL4
  co-IP mass spectrometry count: 15
HADHB
  co-IP mass spectrometry count: 0
DNAJC3
  co-IP mass spectrometry count: 0

Source: patent US20240261333A1 (published 2024)
